B1: CaBP1 N-lobe N-lobe (protein)
chain: not shown
B2: CaBP1 16-167 (protein)
chain: ARLQRVLGLGSRREPRSLPAGGPAPRRTAPPPPGHASAGPAAMSSHIAKSESKTSLLKAAAAAASGGSRAPRHGPARDPGLPSRRLPGSCPATPQSSGDPSSRRPLCRPAPREEGARGSQRVLPQAHCRPREALPAAASRPSPSSPLPPARG
B3: CaBP1 C-lobe C-lobe (protein)
chain: ADMIGVKELRDAFREFDTNGDGEISTSELREAMRKLLGHQVGHRDIEEIIRDVDLNGDGRVDFEEFVRMMSR

Columns and labels:
[1] = biological target: T1, CaV1.2 IQ domain IQ domain (Homo sapiens, UniProt Q13936, Ca2+); experiment: ITC, 15°C
[2] = biological target: T1, CaV1.2 IQ domain IQ domain; experiment: competition ITC
[3] = biological target: T1, CaV1.2 IQ domain IQ domain; experiment: ITC, 25°C

T1 sequence (Q13936 1665-1685): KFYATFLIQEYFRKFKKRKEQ

Binder | Kd [1] [nM] | Kd [2] [nM] | Kd [3] [nM]
B1 | 1100 |  | 
B2 |  | 0.288 | 
B3 | 10.5 |  | 15
